Experimental data published in the supplement of paper PMC10567573.

B1: HSP90AB1 (parent)
chain: YHTSQSGDEMTSLSEYVSRMKETQ
B2: PLD5 (parent)
chain: VTYMNMTAYNKGRLQSSFWIVDKQ

Variants of: B1
Assay: protein stability index of a GFP-peptide fusion (GPS, HEK-293T) (PSI 1-6); higher = more stable
Conditions: c terminus: a fixed tail appended
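Note: lentivirally expressed fusions sorted by FACS into six bins by GFP to DsRed ratio, PSI derived from sequencing read proportions per bin multiplied by bin number.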

Protein stability index of substitutions, site by site:
E15: R 2.85, S 2.87, D 3.02, I 2.37, K 3.48, T 2.79, W 1.48, Q 3.15, F 1.99, V 1.89, N 3.77, G 2.68, L 1.99, A 2.6, Y 2.65, P 1.87, H 2.96
Q24: E 3.94, D 4.06, A 3.26, G 3.52, K 3.43, F 3.16, L 2.98, S 3.61, C 3.18, T 3.64, V 3.19, P 3.43, M 3.2, Y 3.1, R 3.53, N 3.62, I 3.05
Y16: R 3.98, G 4, M 4.16, F 3.49, N 4.3, T 4.02, C 4.16, D 4.74, I 3.09, P 4.02, A 4.17, H 4.1, V 3.79, S 4.22, K 3.53, E 4.37, L 3.41, W 2.69, Q 4.17
E22: M 3.31, H 3.05, G 3.33, Q 3.94, L 3.54, I 3.89, A 3.07, K 3.63, N 3.84, S 3, W 1.79, D 3.83, Y 3.44, C 4.17, P 3.17, T 3.67, F 3.71, V 4.22
R19: Q 4.15, P 3.47, H 3.68, E 4.66, I 3.66, M 3.89, N 4.32, T 4.18, A 3.72, Y 3.7, S 3.8, K 4.27, D 4.41, G 4.09, V 3.67, W 3.46, L 3.22, F 3.15
S18: K 3.53, L 2.74, C 2.87, H 3.35, M 3.41, W 1.77, P 3.92, T 3.81, I 3, V 3.23, G 3.36, N 3.31, R 3.6, A 3.72, E 3.8, D 4, Y 2.56, Q 3.66
K21: D 4.08, M 3.13, Y 2.61, T 3.42, P 3.63, L 3.52, V 3.58, S 3.35, N 3.88, R 3.29, F 2.84, W 2.64, E 4.2, Q 3.32, C 3.47, G 3.84, A 3.71, H 3.52
V17: Y 3.33, S 3.87, H 3.54, A 3.85, F 3.23, I 3.22, L 3.56, R 4.27, C 3.27, N 4.12, K 4.08, G 3.76, T 3.72, E 4.49, Q 4.04, W 2.41, D 4.57, P 3.86
M20: D 4.46, S 3.73, R 4.26, Y 3.55, I 3.29, V 3.92, A 4.62, G 4.37, W 2.47, L 3.42, E 3.73, K 4.11, N 4.1, H 4.16, T 4.27, Q 4.13, P 4.44, C 3.81, F 2.89
T23: P 3.33, Q 3.9, K 3.78, Y 3.16, E 2.89, I 3.63, D 4.52, G 4.12, M 3.29, A 3.81, C 3.23, H 3.59, S 3.5, W 2.79, L 3.57, R 3.76, V 4.14, N 3.88
S14: D 2.96, Q 3.54, L 2.65, V 3.37, M 3.25, E 4.31, P 3.74, N 3.24, K 3.5, R 3.57, W 1.81, T 3.71, Y 3.11, G 3.78, F 3.05

Variants of: B2
Assay: as above
Conditions: c terminus: a fixed tail appended

Protein stability index: each site, then its substitutions
Y9: F 3.22, P 1.1, A 1.62, E 2.11, M 2.17, H 1.75, K 2.02, L 1.92, R 1.58, N 1.78, Q 1.33, C 2.55, D 2.58, G 2.11, I 2.59
M4: A 1.98, V 3.21, S 3.45, P 2.09, D 1.89, N 1.5, K 2.05, L 1.68, R 1.34, C 3.5, H 1.89, Y 2.31, F 3.33, Q 2.18, G 2.13, E 2.3, T 2.44
T2: A 2.55, S 1.87, E 1.87, Q 2.08, H 2.6, P 1.68, R 1.91, D 1.67, N 1.29, C 2.25, K 2.52, G 2.08, W 1.4, I 1.76, M 2.88
V1: G 2.21, E 2.35, T 1.54, C 1.49, K 2.73, Y 3.25, N 2.88, M 2.45, W 2.46, L 1.97, S 2.17, P 2.11, R 1.77, H 1.61, D 1.78, A 1.44, Q 1.9
M6: F 2.16, L 3.25, K 1.58, Y 2.08, N 1.76, A 1.18, D 2.13, P 1.6, I 2.91, V 2.89, G 2.46, S 1.87, T 1.58, E 1.65, R 2.06, Q 2.1, C 2.61, H 1.93
A8: N 2.29, F 2.41, M 2.46, K 1.95, C 2.68, P 3.56, R 1.9, T 2.02, Y 2.39, V 3.16, Q 1.5, L 2.22, I 3.64, E 1.46, D 1.1, H 1.93, G 2.11, S 2.24
Y3: M 2.14, T 1.66, G 1.59, H 1.67, Q 1.76, R 2.4, C 1.55, E 3.13, V 2.33, A 1.99, P 2.06, W 3.91, N 3.08, S 2.51, D 3.2, K 1.62, F 2.88
N5: D 1.45, T 2.08, P 1.49, L 3, M 3.53, R 3.38, F 2.69, A 3.48, I 2.99, W 3.13, E 2.76
T7: L 2.3, F 1.89, Q 2.36, D 1.87, H 2.05, P 1.22, V 2.61, A 3.57, E 1.02, S 2.21, N 2.46
